For 1 protein, kcat/Km results are on record in US8357518B2, “Thermostable enzymes for the hydrolysis of mannan-containing polysaccharides” (The Board of Trustees of the University of Illinois, priority 2010, dated 2013).

Assay in all cases: Catalytic efficiency with oligosaccharides, HPAEC (Man5B)
Common to all, as to format: biochemical, Caldanaerobius polysaccharolyticus
What all share (settings): other: Man5B 3 nM, oligosaccharide 30 μM, citrate buffer 50 mM, pH 5.5, 5 min, triplicate

Substrate in data set [1]: OC[C@H]1O[C@H](OC[C@H]2OC(O)[C@@H](O)[C@@H](O)[C@@H]2O[C@@H]2O[C@H](CO)[C@@H](O[C@@H]3O[C@H](CO)[C@@H](O)[C@H](O)[C@@H]3O)[C@H](O)[C@@H]2O)[C@H](O)[C@@H](O)[C@H]1O
The procedure: (§1) Cloning, expression, and purification of Man5A-TM1, Man5A-TM2 and Man5B. C. polysaccharolyticus was cultured in TYG medium and DNA was isolated from mid-log cultures and purified using the Qiagen DNeasy Blood and Tissue kit with an integrated RNase treatment step. The genome of C. polysaccharolyticus was partially sequenced by the W. M. Keck Biotechnology Center at the University of Illinois at Urbana-Champaign. A Newbler assembly was generated which is comprised of ½ plate of FLX PE 454 data and ½ plate of 8 kb paired-end GSFLX Titanium data using a Genome Sequencer instrument from 454 Life Sciences (Branford, Conn.). The partial genome sequence was uploaded onto the Rapid Annotation using Subsystem Technology (RAST) server (Aziz et al., BMC Genomics, 9:75, 2008). Auto-annotation of the C. polysaccharolyticus partial genome sequence identified ORF0760 as a gene predicted to encode a bifunctional β-D-mannanase/endoglucanase (Man5B). Man5A was previously identified in a recombinant phage library of C. polysaccharolyticus genomic DNA, which was screened for endoglucanase activity (Cann et al., J Bacteriol, 181:1643, 1999) and the full sequence of this gene was also identified in the partial genome sequence for C. polysaccharolyticus.
(§2) The DNA sequence corresponding to man5B was amplified by the PicoMaxx high fidelity PCR kit using genomic DNA as the template with the primer set Man5B-Forward and Man5B-Reverse (Table 1-1). The primers were engineered to incorporate a 5′-[…] (SEQ ID NO: 54) extension in Man5B-F and a 5′-[…] (SEQ ID NO: 55) extension in Man5B-R, which facilitated subsequent directional cloning. The resultant man5B amplicon was then digested with T4 DNA polymerase exonuclease activity, annealed with a similarly digested pET-46b vector and introduced into E. coli JM109 by electroporation. Man5A-TM1 was amplified using genomic DNA as template with primers Man5A-TM1-F and Man5A-TM1-R (Table 1-1). The primer sets for Man5A-TM1 and Man5A-TM2 were designed to include 5′-NdeI and 3′-XhoI restriction sites for subsequent directional cloning. The resulting amplicons were then cloned into the pGEM-T vector via TA-cloning and subcloned in-frame with the hexahistidine (His6) encoding sequence of a modified pET-28a expression vector via its NdeI-XhoI polylinker site. The truncated protein Man5A-TM2 originally named ManA-SLH-CBD was cloned as described in a previous study (Cann et al., J Bacteriol, 181:1643, 1999). Expression of each of the resulting gene constructs yielded fusion proteins containing an N-terminal polyhistidine tag sequence to facilitate affinity purification via metal chelate chromatography. The resulting plasmid constructs pET46-Man5B, pET28a-Man5A-TM1, and pET-28a-Man5A-TM2 were sequenced to confirm the integrity of the cloned genes (W. M. Keck Center for Comparative and Functional Genomics at the University of Illinois at Urbana-Champaign).
(§3) The plasmid constructs were then introduced into E. coli BL-21 CodonPlus (DE3) RIL competent cells by heat shock, and grown overnight in lysogeny broth (LB) agar medium supplemented with ampicillin (100 μg/mL) and chloramphenicol (50 μg/mL) at 37° C. After 12 h, single colonies were selected and used to inoculate fresh LB (10 mL) supplemented with the antibiotics above at the same concentrations, followed by culturing with aeration for 8 h at 37° C. […]

Substrate in data set [2]: OC[C@H]1O[C@@H](O[C@H]2[C@H](O)[C@H](O)[C@H](O[C@H]3[C@H](O)[C@H](O)[C@H](O[C@H]4[C@H](O)[C@H](O)[C@H](O[C@H]5[C@H](O)[C@H](O)C(O)O[C@@H]5CO)O[C@@H]4CO)O[C@@H]3CO)O[C@@H]2CO)[C@@H](O)[C@@H](O)[C@@H]1O
How it is done: as §1, §2, §3

Substrate in data set [3]: OC[C@H]1O[C@@H](O[C@H]2[C@H](O)[C@H](O)C(O)O[C@@H]2CO)[C@@H](O)[C@@H](O)[C@@H]1O
The procedure: as §1, §2, §3

Substrate in data set [4]: OC[C@H]1O[C@@H](O[C@H]2[C@H](O)[C@@H](O)[C@H](O[C@H]3[C@H](O)[C@@H](O)[C@H](O[C@H]4[C@H](O)[C@@H](O)[C@H](O[C@H]5[C@H](O)[C@@H](O)C(O)O[C@@H]5CO)O[C@@H]4CO)O[C@@H]3CO)O[C@@H]2CO)[C@H](O)[C@@H](O)[C@@H]1O
How it is done:
as §1, §2, §3

Substrate in data set [5]: OC[C@H]1O[C@H](OC[C@H]2OC(O)[C@@H](O)[C@@H](O)[C@@H]2O[C@@H]2O[C@H](CO)[C@@H](O)[C@H](O)[C@@H]2O)[C@H](O)[C@@H](O)[C@H]1O
The procedure: as §1, §2, §3

B1: Caldanaerobius polysaccharolyticus endo-β-mannanase Man5B, wild type, SEQ ID NO: 31 (Caldanaerobius polysaccharolyticus) (protein)
chain: MKKYGFNFQWMYVWEEGREPEPPDKKALDFLAETGFNFVRIPVDYRFWTRNFDYFNPDKKVFEYIDLYLRECSARNIHMCLNLHRAPGYCINRNDIERDNLWLDKRAQDGFVYQWELFAKRYKGVSSKFLSFDLVNEPPNIGQYGLTRENHASLIIRTVEAIRKIDPDREIVIDGLGGGNIAMPELAHLGVVHSGRGYQPMALTHYQASWWDGHKGLPEPYYPDLLWQGKVWNKDTLREYYKPWRDLQQKGVNVHIGEFGCFNKTSNDVAIRWFEDVLSLYKEFEWGYSLWNFKGPFGIVEHGRPGAKYEYYRGFKVDRELLDLLVENRV
Usually kcat/Km stands for the second-order rate constant that governs catalysis at low substrate concentration. In the case of B1, the specificity constant (kcat/Km) in data set [1] was 30000 ± 7000 M⁻¹ s⁻¹; in data set [2] it was “(2.2 ± 0.3) × 10^2 mM^−1 s^−1”; in data set [3] it was 230 ± 30 M⁻¹ s⁻¹; in data set [4] it was 17000 ± 3000 M⁻¹ s⁻¹; in data set [5] it was 1500 ± 200 M⁻¹ s⁻¹.
